# Source: paper PMC4370617, “Development of a Molecularly Evolved, Highly Sensitive CaMKII FRET Sensor with Improved Expression Pattern” (PLoS ONE, 2015)
# B1: His-tagged association domain of CaMKIIα, wild type (domain or fragment, rat, UniProt P11275 345-478, looked up)
# chain: VRKQEIIKVTEQLIEAISNGDFESYTKMCDPGMTAFEPEALGNLVEGLDFHRFYFENLWSRNSKPVHTTILNPHIHLMGDESACIAYIRITQYLDAGGIPRTAQSEETRVWHRRDGKWQIVHFHRSGAPSVLPH
# notes: association domain of CaMKIIα, rat, 345-end; Printed molecular weight of the His-tagged domain: 19,800; The limits 345-end are stated for the library fragment; they are not restated for the HeLa expression construct; also called AD WT; source: HeLa, transfected, purified (Ni-Sepharose)
# Target: the molecule itself
# Experiment: native gel or EMSA; His-tagged association domains purified from HeLa cells, incubated in 25 mM HEPES pH 7.3, 50 mM KCl, 1 mM DTT for 1 hour at 37°C; native-PAGE, silver staining
protein,measurement,value
B1,binding result,binds
